Results from the DeepSol protein solubility set.

test: soluble on expression in E. coli; label from the status in PepcDB or PDB records

Soluble on expression in E. coli, not soluble:
MGSDKIHHHHHHMTTTKKTGERLIKKYPNRRLYDTETSTYITLTDVKQLVLEQEDFKVIDAKSSEDLTRSILLQIILEEESGGVPMFSSSMLSQIIRFYGHAMQGMMGTYLEKNIQAFIDIQSKLADQSKNLYENNAMNPEVWSQFMNMQAPMMQGMMTSYIEQSKNMFVQMQEQMQNQAKTMFSSFPFKPATPPGSEPEKK
MGSDKIHHHHHHMTTVYSGLISCYNAYPKKHSYRVRRSDKGWHDGAVWYLEKAKIMLRNDNLKIKGLTPEQEENVRAIHAMNPAHILVECATNKSWGGKKELSDLDLDSYKKAADTLYEEGFGLCIRYNRQTSIKEFIQQIVDHIGAAQYDNVETGKQTIKLIRRDYKPEDLPVFNYDNGILSVRDDDSGATDKQPNQVIVKYREPVSNRDDQAIANNIASVRMHGVISKTVEYKGVPTFDLAARLARDLELVASGLTRLKIVFDMRASELKPGDVVRVNLPDRDIVDVVFRVGKLENGNDGEIIATCIQDVFGLPAANYSTQKGESLYIPPDYTANPIQQARLIEVPYHVLPLVLSDAERAFVKPTDCFVWALGAQPTALSVGYDMLVDVGGGYTQTATGSFTPFVRLLEPVSPYQTNIKIKLEGDYAAVAGALALIVDDEIIKIDAVDFKTGTMTVGRGCADTVPQAHKADAVAWCYLLAAGTDESKYTVNERLNVKLLTRTAQQTLDESKAEVLTLTTQQRQARPFCVELGVPRPRRTSGQTDSALGRQHAPRRWRQL
MGSDKIHHHHHHMTTYSPSQENYRELAHLLARFTSLTQIKTIFYDFTGILLKDDFVYINHSAIEDNLAQLTFSDYAVFPVSRNIQMWGAILCESVNVSKKRLFLSRSYLENLMTQIFDEDTLGKVSVWEPLTSDQVGQINNLHALFHPTGDTDPLQAVLAPNAVIAGHTIDNDEAFRSISLAIDYIQKNIQRPISLNEVAQRAYLSPSYLSRLFKKYLHVNFIEYVNNQKIALAQEKLSLTLTPINQISNQIGFTQTSYFTKIFKKKTGITPSEFRQRNHTIQKIYTIPRELNWDTNDSVIDVTKNYFKSHHITYHTDSEEGATYVNSIGELNDAKGNRGWIYTVDGQQPTQSADEIATHDKSVIQWVYTDYSN
MGSDKIHHHHHHMTYDYTEPTLSAKGQRMRDILADYIALISHRLPDDVTAKLEELSKIEVDPLQKLVYDTMMENQLLANKLKRPSCQDTGALQFFIKCGAQFPLLGELNQILKDAVYRGTKKAPLRHNAVQTFDEYNTGMNIGDGIPSIFLQVDGNGTDISMYVYMAGGGCTLPGAAKVLMPGEGYEGVVRFVMDRMTSYGINACPPLLVGVGVATSVETAALNSKLALMRRVDSENPNANAAKLEHLLEDGINHIGLGPQGFGGQKSVMGVNVENTARHPSTIGVAVSTGCWSHRRGLINFDADLNYDLPLNKGVELS
MGSDKIHHHHHHMTYPKYTQQALSRYNLPRLKRIATELGVTPTGDKRAADTWVNAIIIHQSTKLQKVDNQALAQAELDSYIADQAQAIAPEPLTIVEISFDHHEYYADDKLVASISHDDSHLTQRWVVMINDKEIFRANTLMHCDRFICNHYKDGSLPVQEKEATPSTIENQIMAHIFNECQNYGFEILDDGIYNNGVKLGQVGCTDGNWWVKRRYSVQQQYSNSVLDAVRSLSMLDVSNGGKSIFDEYILDQPLEQLTGDRLQRLLERAELVTA
MGSDKIHHHHHHMTYPVVLVNVSRNTNAISFPMGLSVVANALLHHDITPQIIDLIPVMPDQRIDYFLRTMPKEPAIYGFSMMIGNFHLDHAEHYARLIKEHSPDSIVVYGGSLPSSVPELLVENCECDFVIHGEGEVVFPAFVKALREGESFPEGPGIFYKGADGQVVGTKAKRMRRLDHLSRQNYSLFDMDFYSGYFKEVGLSWEIMASRGCKAHCSFCYKFMGDGIGLREVGEVLDEIQYIMENYGITKFYFVDENFMQIKKYFYSFLEEKKNRGLNFTFIASSRIDEIDEERISIAKEHGLTALTTGVESVNQATLNAIDKRIDIEDAERAVKLLRQYGIRPHVNLIIGFEWESEDDYKAMLEFIERNDLRGTVKLSYLTPLPATRLYEDAKSRNKLGKPEFEYVRTLGNLYWELMVNMTNMPDELLKHYYALISDVGKETRALPVTPAYRQNLNDDLVMYKTVAAPSPPPAHAAWSLP
MGSDKIHHHHHHMTYTPFFIHGEDRRSRWLITCDHATNTVPPEICGGDLGLAREDMERHIAYDVGAYEVSRLLGEMLAAPVIAANFSRLVIDPNRGEDDPTLLMKLYDGSIIPGNRHADAAERERRLNMCYRPYHDALARLAARPGVVLVSMHSFTRQLRGRAPRPWQIGVLHTADQRFSDPLIARLRGEADLCVGVNQPYTGVLPGDAIDTHCTAFGRPNALIELRNDLIGDPAGQHAWAERLAPLLQDALADSGL
